Assay results: patent US20230087785A1, “Leucine-Rich Repeat Kinase 2 Allosteric Modulators” (VIB VZW, priority 2020, published 2023)

Columns and labels:
LRRK2(G2019S) = biological target: T1, LRRK2(G2019S) (Homo sapiens, UniProt Q5S007, G2019S/M2397T/R50H); assay: In cellulo phospho-Rab / LRRK2 autophosphorylation assay in HEK293T cells; assay type: cell-based; parameters: key to Functional Group (see FIG. 2d): Group 1: group 1: Nbs that inhibit both LRRK2 autophosphorylation and Rab10 phosphorylation in cells; Group 2: group 2: Nbs that inhibit only Rab10 phosphorylation; Group 3: group 3: Nbs that activate LRRK2 kinase activity; Group 4: group 4: Nbs that have no consistent/clear effect on LRRK2 kinase activity; conditions: for influence on LRRK2 kinase activity compared to the controls: Western blot; for Functional Group (see FIG. 2d): classification by effect on in cellulo LRRK2(G2019S) kinase activity
T1 construct: SF tag (FLAG + Twin-Strep); expressed in transfected cells; host or cells: HEK 293T
Protocol: (FIGS. 2A-2C) LRRK2(G2019S) and its effector Rab29 were overexpressed together with GFP-fused Nbs (“Fluobody”) in HEK293T cells. A negative control, where no Nb is overexpressed (“No Nb”) is also included. […] In rows labeled “pLRRK2”, LRRK2 pS1292 levels are determined by Western Blot using a site-specific anti-pLRRK2(pS1292) antibody (Abcam, ab203181) (shown at different times of development). In the rows labeled “pRAB10”, endogenous pT72-Rab10 levels are determined by Western Blot using the MJFF/Abcam antibody MJF-R21 (Abcam, ab230261) (shown at different times of development). The three lower rows contain controls of LRRK2 (rat anti-LRRK2, 24D8), Fluobody (rat anti-GFP) and Rab10 (rabbit anti-Rab10) expression levels. (FIG. 2D) Based on the results of panels (FIGS. 2A-2C) the Nbs can be divided into 4 functional groups, with group 1: Nbs that inhibit both LRRK2 autophosphorylation and Rab10 phosphorylation in cells; group 2: Nbs that inhibit only Rab10 phosphorylation; group 3: Nbs that activate LRRK2 kinase activity; group 4: Nbs that have no consistent/clear effect on LRRK2 kinase activity.
To assess the influence of the Nbs on LRRK2 kinase activity we monitored two physiologically and disease relevant activities of LRRK2: phosphorylation of the endogenous substrate Rab10 at position T72 and LRRK2 autophosphorylation at position S1292 [25-30]. […] In our cellular assay we thus co-expressed LRRK2(G2019S), Rab29 and the different Nb-GFP fusions in HEK 293T cells (FIG. 2a-c).
HEK 293T cells were cultured in DMEM (supplemented with 10% Fetal Bovine Serum, […] L-Glutamine and 0.5% Pen/Strep). For the assay, the cells were seeded onto six-well plates and transfected at a confluency of 50-70% with the individual Nb-GFP expression constructs, SF-tagged LRRK2(G2019S) and FLAG-HA Rab29 using a self-made polyethylenimine (PEI)-based transfection reagent. After 48 hrs cells were lysed in lysis buffer [30 mM Tris-HCL (pH7.4), 150 mM NaCl, 0.5% Nonident-P40, complete protease inhibitor cocktail, phosphatase inhibitor cocktail II & III (all Sigma)]. Lysates were cleared by centrifugation at 10,000×g and adjusted to a protein concentration of 1 μg/μl in 1× Laemmli Buffer. Samples were subsequently subjected to SDS PAGE and Western Blot analysis to determine LRRK2 pS1292 and Rab10 T72 phosphorylation levels, as described below. Total LRRK2 and Rab10 levels were determined as a reference.
For western blot analysis, protein samples were separated by SDS-PAGE using NuPAGE 10% Bis-Tris gels (Invitrogen) and transferred onto PVDF membranes (Thermo Fisher). To allow simultaneous probing for LRRK2 on the one hand and Rab and the Nb-GFP fusions on the other hand, membranes were cut horizontally at the 140 kDa MW marker band. After blocking non-specific binding sites with 5% non-fat dry milk in TBST (1 h, RT) (25 mM Tris, pH 7.4, 150 mM NaCl, 0.1% Tween-20), membranes were incubated overnight at 4° C. with primary antibodies at dilutions specified below. Phospho-specific antibodies were diluted in TBST/5% BSA (Roth GmbH). Non-phospho-specific antibodies were diluted in TBST/5% non-fat dry milk powder (BioRad). Phospho-Rab10 levels were determined by the site-specific rabbit monoclonal antibody anti-pRAB10([…]) (Abcam, ab230261) and LRRK2 autophosphorylation was determined by the site-specific rabbit monoclonal antibody anti-pLRRK2(pS1292) (Abcam, ab203181), both at a dilution of 1:2,000. Total LRRK2 levels were determined by the in-house rat monoclonal antibody anti-pan-LRRK2 (clone 24D8; 1:10,000). Total Rab10 levels were determined by the rabbit monoclonal antibody anti-RAB10/ERP13424 (Abcam, ab181367) at a dilution of 1:5,000. Nb-GFP fusion proteins were detected using the rat monoclonal antibody anti-GFP (clone 3H9, ChromoTec) at a dilution of 1:2,000. For detection, goat anti-rat IgG or anti-rabbit IgG HRP-coupled secondary antibodies (Jackson ImmunoResearch) were used at a dilution of 1:15,000 in TBST/5% non-fat dry milk powder. […]

endogenous LRRK2 = biological target: T2, endogenous LRRK2 (Mus musculus, UniProt Q5S006); assay: Colocalization of GFP-Nbs with endogenous LRRK2 on zymosan-containing phagosomes in RAW264.7 cells; assay type: cell-based; conditions: RAW264.7 cells transfected with GFP-Nbs, zymosan 30 mins, fixed cells
T2 construct: endogenous in cells; host or cells: RAW264.7
Protocol: RAW264.7 cells were transfected with GFP-fused Nbs and treated with Zymosan for 30 mins. Recruitment of LRRK2 and Nbs to the phagosomes was analyzed by immunofluorescence. FIG. 16A, images for Nb38, Nb22, Nb23, Nb40, No Nb, or Irrelevant (IRR) Nb treatments; FIG. 16B, images for Nb36, Nb42, Nb17, Nb39, Nb1, and Nb6 treatments. Scale bar=10 μm.
To test whether Nbs can trace and visualize endogenous LRRK2 in fixed cells, we generated green fluorescent protein (GFP)-Nb fusions (fluobodies) as described before. Recently, it was shown that LRRK2 is recruited to phagosomes upon induction of phagocytosis in immune cells. Therefore, RAW264.7 cells were transfected with these fluobodies and treated with killed yeast bioparticles “zymosan” to induce phagocytosis.
RAW264.7 cells (ATCC® SC-6003™) were transfected with peGFP-Nb constructs using JetOPTIMUS (Polyplus transfection) for 24 hrs and then stimulated with Zymosan particles (Sigma Aldrich) for 30 mins ([…]). Immunostaining for LRRK2 was performed as reported before. Briefly, cells fixed with 4% (w/v) paraformaldehyde for 30 min, followed by treatment with 100% EtOH at −20° C. Sampled were permeabilized with PBS/0.5% Triton X-100 and blocked with 3% BSA. Primary antibodies (rabbit anti-LRRK2, c41-2, Abcam and mouse anti-GFP, G6539, Sigma Aldrich) were diluted in PBS containing 3% BSA and 0.5% Triton X-100 and incubated overnight at 4° C. After three 5-min washes with PBS, secondary fluorescently labeled antibodies (anti-rabbit-Alexa fluor 568 and anti-mouse-Alexa fluor 488, Invitrogen) were added in a similar manner to primary antibodies and incubated for 1 hour at room temperature. Cells were washed twice with 1×PBS and mounted with Fluroshield antifade reagent with DAPI (SigmaAldrich). Images were acquired on Zeiss LSM800 confocal laser scanning microscope. Image analysis of z-scan was done using the Zeiss microscope software ZEN.

[1] = HEK 293T cells co-expressing LRRK2(G2019S), Rab29 and Nb-GFP

T1 sequence (Q5S007 whole entry R50H/G2019S/M2397T): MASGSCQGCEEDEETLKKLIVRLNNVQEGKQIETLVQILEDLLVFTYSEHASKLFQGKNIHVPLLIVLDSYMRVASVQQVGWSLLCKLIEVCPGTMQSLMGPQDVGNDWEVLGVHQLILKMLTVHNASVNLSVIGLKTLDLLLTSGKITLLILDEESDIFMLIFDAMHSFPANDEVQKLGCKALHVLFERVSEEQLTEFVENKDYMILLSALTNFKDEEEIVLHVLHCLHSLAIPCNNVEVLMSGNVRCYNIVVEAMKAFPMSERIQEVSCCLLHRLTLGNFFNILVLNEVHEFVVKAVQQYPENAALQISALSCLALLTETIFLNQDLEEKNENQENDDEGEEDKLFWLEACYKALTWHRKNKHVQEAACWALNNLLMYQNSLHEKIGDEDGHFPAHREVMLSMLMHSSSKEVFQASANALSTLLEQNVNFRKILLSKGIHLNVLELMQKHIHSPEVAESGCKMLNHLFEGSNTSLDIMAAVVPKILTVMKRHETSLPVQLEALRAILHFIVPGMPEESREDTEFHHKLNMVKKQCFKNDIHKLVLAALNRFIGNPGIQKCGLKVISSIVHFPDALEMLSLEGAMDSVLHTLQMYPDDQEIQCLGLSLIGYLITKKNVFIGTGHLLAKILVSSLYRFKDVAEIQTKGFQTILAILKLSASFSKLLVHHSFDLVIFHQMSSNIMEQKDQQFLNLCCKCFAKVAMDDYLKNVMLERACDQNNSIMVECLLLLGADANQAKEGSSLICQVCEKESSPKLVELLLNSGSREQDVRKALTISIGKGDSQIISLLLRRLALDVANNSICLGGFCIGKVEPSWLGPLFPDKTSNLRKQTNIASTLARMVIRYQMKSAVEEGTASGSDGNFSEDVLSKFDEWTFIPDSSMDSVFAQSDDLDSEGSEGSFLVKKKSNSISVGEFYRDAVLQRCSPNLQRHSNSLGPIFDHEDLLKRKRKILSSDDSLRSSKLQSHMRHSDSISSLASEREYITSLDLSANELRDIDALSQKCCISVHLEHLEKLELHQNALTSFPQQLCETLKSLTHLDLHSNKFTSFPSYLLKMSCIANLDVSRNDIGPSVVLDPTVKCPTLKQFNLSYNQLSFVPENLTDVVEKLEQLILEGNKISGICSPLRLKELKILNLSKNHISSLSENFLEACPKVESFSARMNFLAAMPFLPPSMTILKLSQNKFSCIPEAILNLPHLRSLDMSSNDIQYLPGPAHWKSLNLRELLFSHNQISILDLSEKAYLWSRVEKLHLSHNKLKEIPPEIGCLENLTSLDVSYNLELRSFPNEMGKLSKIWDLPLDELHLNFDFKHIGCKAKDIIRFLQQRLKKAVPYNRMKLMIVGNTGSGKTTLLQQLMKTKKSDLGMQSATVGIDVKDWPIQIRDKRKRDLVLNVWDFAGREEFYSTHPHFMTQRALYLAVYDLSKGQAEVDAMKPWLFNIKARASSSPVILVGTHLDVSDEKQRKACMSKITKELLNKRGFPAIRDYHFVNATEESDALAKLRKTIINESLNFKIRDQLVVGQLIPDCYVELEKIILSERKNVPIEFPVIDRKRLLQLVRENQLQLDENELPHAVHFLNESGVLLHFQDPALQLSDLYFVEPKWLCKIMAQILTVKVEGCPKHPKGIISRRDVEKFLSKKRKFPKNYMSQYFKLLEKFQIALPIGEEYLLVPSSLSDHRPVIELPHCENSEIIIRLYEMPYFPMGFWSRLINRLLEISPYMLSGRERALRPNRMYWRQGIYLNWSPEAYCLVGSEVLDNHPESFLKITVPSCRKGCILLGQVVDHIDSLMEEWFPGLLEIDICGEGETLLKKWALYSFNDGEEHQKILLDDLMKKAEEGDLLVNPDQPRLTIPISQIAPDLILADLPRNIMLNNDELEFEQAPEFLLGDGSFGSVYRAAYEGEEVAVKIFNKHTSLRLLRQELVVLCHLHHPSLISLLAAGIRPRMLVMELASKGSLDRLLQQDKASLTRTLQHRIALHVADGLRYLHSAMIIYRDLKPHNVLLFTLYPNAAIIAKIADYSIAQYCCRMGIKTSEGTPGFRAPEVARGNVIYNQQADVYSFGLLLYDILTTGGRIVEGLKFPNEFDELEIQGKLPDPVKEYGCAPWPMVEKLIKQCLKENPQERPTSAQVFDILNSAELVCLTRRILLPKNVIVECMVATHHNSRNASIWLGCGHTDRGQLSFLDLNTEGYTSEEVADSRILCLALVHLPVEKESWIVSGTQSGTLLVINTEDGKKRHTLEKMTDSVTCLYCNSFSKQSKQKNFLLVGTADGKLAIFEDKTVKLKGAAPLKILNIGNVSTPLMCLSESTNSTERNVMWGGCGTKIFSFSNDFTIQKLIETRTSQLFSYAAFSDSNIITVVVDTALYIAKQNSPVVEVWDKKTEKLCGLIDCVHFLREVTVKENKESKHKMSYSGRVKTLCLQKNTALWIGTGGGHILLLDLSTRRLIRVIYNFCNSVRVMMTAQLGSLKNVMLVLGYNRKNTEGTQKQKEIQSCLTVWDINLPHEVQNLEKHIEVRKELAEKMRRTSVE
T2 sequence (Q5S006 whole entry): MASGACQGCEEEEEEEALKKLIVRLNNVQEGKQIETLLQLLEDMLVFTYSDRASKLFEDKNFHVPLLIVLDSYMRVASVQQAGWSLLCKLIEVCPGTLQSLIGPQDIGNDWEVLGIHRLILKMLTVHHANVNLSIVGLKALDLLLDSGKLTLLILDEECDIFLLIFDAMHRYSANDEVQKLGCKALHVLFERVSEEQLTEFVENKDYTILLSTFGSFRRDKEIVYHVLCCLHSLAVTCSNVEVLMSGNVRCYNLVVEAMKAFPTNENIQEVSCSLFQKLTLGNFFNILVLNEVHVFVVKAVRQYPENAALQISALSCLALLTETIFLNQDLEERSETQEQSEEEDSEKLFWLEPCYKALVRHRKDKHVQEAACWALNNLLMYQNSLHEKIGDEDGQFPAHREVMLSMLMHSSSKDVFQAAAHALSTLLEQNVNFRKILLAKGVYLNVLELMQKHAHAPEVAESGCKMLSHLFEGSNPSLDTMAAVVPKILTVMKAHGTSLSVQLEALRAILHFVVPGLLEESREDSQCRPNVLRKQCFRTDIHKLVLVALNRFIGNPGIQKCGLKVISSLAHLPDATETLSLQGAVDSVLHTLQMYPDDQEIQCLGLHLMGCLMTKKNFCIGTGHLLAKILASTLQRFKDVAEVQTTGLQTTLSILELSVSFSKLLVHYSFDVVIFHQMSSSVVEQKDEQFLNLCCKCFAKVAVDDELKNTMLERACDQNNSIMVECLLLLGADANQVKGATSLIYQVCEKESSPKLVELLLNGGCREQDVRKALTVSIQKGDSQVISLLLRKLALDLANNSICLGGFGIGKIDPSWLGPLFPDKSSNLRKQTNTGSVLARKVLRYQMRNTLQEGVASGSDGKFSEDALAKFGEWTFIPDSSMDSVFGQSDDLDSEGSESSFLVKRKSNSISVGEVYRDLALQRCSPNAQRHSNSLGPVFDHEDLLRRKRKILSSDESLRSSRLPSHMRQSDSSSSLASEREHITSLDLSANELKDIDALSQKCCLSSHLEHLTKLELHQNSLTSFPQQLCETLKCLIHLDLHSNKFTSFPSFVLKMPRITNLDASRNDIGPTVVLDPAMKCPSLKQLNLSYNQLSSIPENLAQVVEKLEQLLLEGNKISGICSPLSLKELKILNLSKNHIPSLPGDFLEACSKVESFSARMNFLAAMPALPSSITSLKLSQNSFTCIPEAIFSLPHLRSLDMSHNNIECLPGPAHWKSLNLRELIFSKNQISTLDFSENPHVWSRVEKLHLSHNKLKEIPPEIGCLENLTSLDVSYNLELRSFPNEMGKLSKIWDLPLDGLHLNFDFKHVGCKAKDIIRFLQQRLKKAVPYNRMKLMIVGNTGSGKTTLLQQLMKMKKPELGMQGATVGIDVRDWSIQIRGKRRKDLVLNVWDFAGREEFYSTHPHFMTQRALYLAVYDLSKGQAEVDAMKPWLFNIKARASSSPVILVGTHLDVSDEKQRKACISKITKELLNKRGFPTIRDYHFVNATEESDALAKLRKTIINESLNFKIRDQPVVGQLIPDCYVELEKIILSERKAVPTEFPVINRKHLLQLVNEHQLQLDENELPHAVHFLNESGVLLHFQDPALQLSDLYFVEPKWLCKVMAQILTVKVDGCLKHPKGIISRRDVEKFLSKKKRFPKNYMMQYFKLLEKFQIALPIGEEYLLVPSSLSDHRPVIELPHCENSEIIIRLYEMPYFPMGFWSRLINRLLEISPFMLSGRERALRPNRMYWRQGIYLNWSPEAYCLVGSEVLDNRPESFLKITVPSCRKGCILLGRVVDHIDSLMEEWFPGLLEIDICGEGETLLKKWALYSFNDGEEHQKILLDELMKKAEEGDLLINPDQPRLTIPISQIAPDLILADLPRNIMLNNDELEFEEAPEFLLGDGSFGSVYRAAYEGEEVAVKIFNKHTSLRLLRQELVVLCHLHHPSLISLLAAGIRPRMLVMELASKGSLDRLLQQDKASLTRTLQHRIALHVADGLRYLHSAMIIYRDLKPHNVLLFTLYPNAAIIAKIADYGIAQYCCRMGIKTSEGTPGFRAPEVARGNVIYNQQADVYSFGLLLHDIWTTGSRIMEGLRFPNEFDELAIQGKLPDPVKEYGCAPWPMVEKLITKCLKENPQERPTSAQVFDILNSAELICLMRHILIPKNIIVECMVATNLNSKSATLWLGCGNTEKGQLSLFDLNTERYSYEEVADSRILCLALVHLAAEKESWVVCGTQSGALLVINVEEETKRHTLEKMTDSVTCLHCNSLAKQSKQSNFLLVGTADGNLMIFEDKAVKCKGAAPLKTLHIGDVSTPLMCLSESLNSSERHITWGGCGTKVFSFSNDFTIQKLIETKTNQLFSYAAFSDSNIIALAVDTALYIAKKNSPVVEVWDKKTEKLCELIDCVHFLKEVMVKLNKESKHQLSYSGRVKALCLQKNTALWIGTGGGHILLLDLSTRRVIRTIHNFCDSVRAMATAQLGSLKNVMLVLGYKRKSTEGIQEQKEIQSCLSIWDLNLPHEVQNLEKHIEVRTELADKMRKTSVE

| Molecule | influence on LRRK2 kinase activity compared to the controls (LRRK2(G2019S); [1]) | Functional Group (see FIG. 2d) (LRRK2(G2019S)) | colocalization with endogenous LRRK2 on phagosomes (endogenous LRRK2) | LRRK2 autophosphorylation at position S1292 (LRRK2(G2019S); [1]) | Rab10 phosphorylation at position T72 (LRRK2(G2019S); endogenous Rab10, HEK 293T cells co-expressing LRRK2(G2019S), Rab29 and Nb-GFP) |
| --- | --- | --- | --- | --- | --- |
| Nb39: LRRK2-specific Nanobody, SEQ ID NO: 10 (protein, Nanobody CA14134) VHH: MAQVQLVESGGGLVQAGGSLRLSCRASGGTFSTYAMGWFRQVPGKERETVAAVKWSGDMTYYADSVKGRFTISRDNAKNTVYLQMNSLRPEDTAVYYCAARRGLSYYRGPSEYDYWGQGTQVTVSS | no influence on LRRK2 kinase activity | Group 4 | LRRK2 recruitment to phagosomes was slightly detectable | – | – |
| Nb38: LRRK2-specific Nanobody, SEQ ID NO: 8 (protein, Nanobody CA14133) VHH: MAQVQLVESGGGLVQPGGSLRLSCAASGSIRSIATSAWYRQPPGKQRELVAGISSGTTTNYADSVKGRFTISRDNAKNTVYLQMNSLKPEDTAVYYCHAWISGTWISGQGTQVTVSS | strongly decreased LRRK2 autophosphorylation and/or Rab10 phosphorylation | Group 2 | clearly colocalized with LRRK2 on zymosan-containing phagosomes | inhibiting S1292 phosphorylation at a lesser extent | inhibit Rab10 phosphorylation |
